Assay results taken from publication PMC11193732 (Scientific Reports, 2024).

Assays:
[1] = target: T1, 6xHis-tagged recombinant SARS-CoV-2 (2019-nCoV) spike S2 extracellular domain (SARS-CoV-2, Wuhan (2019-nCoV), UniProt P0DTC2); assay: western blot; recombinant spike proteins separated by SDS-PAGE on nitrocellulose; 5G2 mAb 0.2 μg/mL, RT 1 h; anti-mouse IgG-F(ab')2-HRP; conditions: both partners purified
T1 construct: SARS-CoV-2 (2019-nCoV) spike protein, S2 extracellular domain; lacks the cytoplasmic region; No catalogue number or limits are printed; also called recombinant S2; S2 subunit of the recombinant spike protein

[2] = target: S2 subunit of the SARS-CoV-2 WT spike protein in infected Vero cells (SARS-CoV-2, Wuhan (WT), UniProt P0DTC2); assay: western blot; conditions: one partner purified
[3] = target: T2, SARS-CoV-2 spike 1099-1112 peptide (GTH peptide) (Severe acute respiratory syndrome …); assay: SPR; conditions: both partners purified
T2 construct: SARS-CoV-2 spike protein, residues 1099-1112, between HR1 and HR2 of the S2 domain
T2 chain: GTHWFVTQRNFYEP

[4] = target: T3, 6xHis-tagged recombinant SARS-CoV-2 (2019-nCoV) spike protein S1 + S2 extracellular domain (Severe acute respiratory syndrome …, UniProt P0DTC2); assay: ELISA; […] (40 ng/mL, 50 μL) […]; conditions: one partner purified
T3 construct: SARS-CoV-2 (2019-nCoV) spike protein, S1 + S2 extracellular domain; lacks the cytoplasmic region; retains the S1/S2 cleavage regions; No catalogue number or limits are printed; also called recombinant S1 + S2; recombinant spike protein

[5] = target: T4, spike protein (S1 + S2) of SARS-CoV-2 WT (Wuhan strain) (SARS-CoV-2, Wuhan (WT), UniProt P0DTC2); assay: ELISA; wells coated with 1 × 10^5 heat-inactivated virus in PBS; 5G2 mAb added; anti-mouse IgG-F(ab')2-HRP, A450; conditions: one partner purified
T4 construct: uncleaved S1 + S2 spike protein of SARS-CoV-2 WT (Wuhan strain), as made by the virus; also called original Wuhan strain; the coronavirus

[6] = target: T5, recombinant S2 subunit of the spike protein without 6xHis (SARS-CoV-2, Wuhan (WT), UniProt P0DTC2); assay: western blot
T5 construct: also called r-S2; recombinant S2 without 6xHis

[7] = target: T4, spike protein (S1 + S2) of SARS-CoV-2 …; assay: western blot; conditions: one partner purified
[8] = target: T1, 6xHis-tagged recombinant SARS-CoV-2 …; assay: western blot; recombinant spike proteins separated by SDS-PAGE on nitrocellulose; MBP-sc5G2-6xHis 0.8 μg/mL, RT 1 h; anti-MBP antibody and anti-mouse IgG-F(ab')2-HRP; conditions: both partners purified
[9] = target: T3, 6xHis-tagged recombinant SARS-CoV-2 …; assay: as above; conditions: both partners purified
[10] = target: T1, 6xHis-tagged recombinant SARS-CoV-2 …; assay: western blot; conditions: one partner purified
[11] = target: T3, 6xHis-tagged recombinant SARS-CoV-2 …; assay: western blot; conditions: one partner purified

B1: 5G2 monoclonal antibody (antibody, V domains shown)
VH: QIQLVQSGPELKKPGATVKISCKASGYTFTNYGMHWLKQTPGKVLKWMGLINTYTGEPKYADDFKGRFAFSLETSASTAYLQINNLRSEDTATYFCARKGLGLRPPMDSWGQGTSVTVSS
VL: QIVLSQSPAILSASPGEKVTMTCRASSSVNYMHWCQQKPGSSPKPLIHGTSNLASGVPGRFSGSGSGTSYSLTISRVEAEDAATYYCHQWNSYPLTFGAGTRLEL
notes: also called 5G2 mAb; mAb 5G2
- binding result [1]: binds
- binding result [2]: binds
- Kd [3]: 0.11 nM
- binding result [4]: binds
- binding result [5]: binds

B2: sc5G2-6xHis produced by E. coli (refolded) (scFv, V domains shown)
VH: B1 VH
VL: B1 VL
notes: as the heavy chain variable region of m1; as the light chain variable region of m1; also called MBP-free sc5G2
- binding result [6]: binds
- binding result [7]: binds

B3: MBP-sc5G2-6xHis produced by HEK293FT cells (scFv, V domains shown)
VH: B1 VH
VL: B1 VL
notes: as the heavy chain variable region of m1; as the light chain variable region of m1; The MBP cDNA came from the pMAL-p2 vector; not shown: MBP, N-terminal, kept; 6xHis, C-terminal, kept
- binding result [8]: binds
- binding result [9]: binds
- binding result [7]: binds

B4: recombinant 5G2 (cloned heavy and light chains fused to mouse IgG constant γ1 and κ chains) (antibody, V domains shown)
VH: B1 VH
VL: B1 VL
notes: as the heavy chain variable region of m1; mouse IgG constant γ1 chain; as the light chain variable region of m1; mouse immunoglobulin constant κ chain; Mouse IgG1 kappa; also called recombinant heavy and light chains of 5G2; 293FT + cDNA
- binding result [10]: binds
- binding result [11]: binds

B5: MBP-sc5G2-6xHis produced by E. coli (refolded) (scFv, V domains shown)
VH: B1 VH
VL: B1 VL
notes: as the heavy chain variable region of m1; as the light chain variable region of m1; Same cDNA as m3, in pET22b; not shown: MBP, N-terminal, kept; 6xHis, C-terminal, kept
- binding result [8]: binds
- binding result [9]: binds
- binding result [7]: binds
